“And” between values parts separate entries of the source, which are not always exact repeats. Identical values can stand only once.
Molecular target: human heparanase, active 50 kDa form (human) (UniProt Q9Y251)
Experiment: cell-based or functional assay

Sequence of UniProt Q9Y251 (Q9Y251 158-543 limits assumed, form in doubt): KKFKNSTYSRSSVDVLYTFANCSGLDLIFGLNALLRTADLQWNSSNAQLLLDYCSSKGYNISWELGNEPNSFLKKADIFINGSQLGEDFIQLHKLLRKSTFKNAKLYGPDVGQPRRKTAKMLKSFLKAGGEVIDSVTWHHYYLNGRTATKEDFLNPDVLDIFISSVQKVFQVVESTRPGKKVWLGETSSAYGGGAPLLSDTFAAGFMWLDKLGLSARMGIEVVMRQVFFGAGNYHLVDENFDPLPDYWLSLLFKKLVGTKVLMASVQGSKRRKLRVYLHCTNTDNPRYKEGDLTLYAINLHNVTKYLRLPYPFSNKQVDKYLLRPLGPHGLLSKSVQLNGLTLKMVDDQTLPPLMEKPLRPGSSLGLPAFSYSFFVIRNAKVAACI

| inhibition of heparanase activity (35S-labeled ECM degradation) | inhibition of heparanase activity (release of HS degradation fragments from 35S-labeled ECM, gel filtration) | inhibition of recombinant heparanase activity by eosinophil lysates (cellular MBP), 35S-labeled ECM degradation (fold excess of MBP over heparanase) | Molecule |
| --- | --- | --- | --- |
| 5 ng/mL and 13 ng/mL |  |  | poly-L-arginine (peptide) |
| 20 ng/mL |  |  | myelin basic protein |
|  | 80 nM and 200 nM | 2.5 | Major Basic Protein (MBP) purified from human eosinophils (protein, UniProt P13727 106-222, looked up) TCRYLLVRSLQTFSQAWFTCRRCYRGNLVSIHNFNINYRIQCSVSALNQGQVWIGGRITGSGRCRRFQWVDGSRWNFAYWAAHQPWSRGGHCVALCTRGGHWRRAHCLRRLPFICSY |

From patent US20050192209A1
